Experimental data taken from US7547676B2, “Antagonist peptides to the C5A chemotactic function of vitamin D binding protein” (The Research Foundation of State University of New York, priority 2004, dated 2009).

Legend:
[1] = target: T1, DBP immobilized on a Biacore sensor chip (Homo sapiens, UniProt P02774); assay: Biacore surface plasmon resonance: U937-C5aR cell binding to immobilized DBP
T1 construct: DBP was purified from human plasma; purchased Biodesign International; host or cells: human plasma
T1 sequence (P02774 17-474): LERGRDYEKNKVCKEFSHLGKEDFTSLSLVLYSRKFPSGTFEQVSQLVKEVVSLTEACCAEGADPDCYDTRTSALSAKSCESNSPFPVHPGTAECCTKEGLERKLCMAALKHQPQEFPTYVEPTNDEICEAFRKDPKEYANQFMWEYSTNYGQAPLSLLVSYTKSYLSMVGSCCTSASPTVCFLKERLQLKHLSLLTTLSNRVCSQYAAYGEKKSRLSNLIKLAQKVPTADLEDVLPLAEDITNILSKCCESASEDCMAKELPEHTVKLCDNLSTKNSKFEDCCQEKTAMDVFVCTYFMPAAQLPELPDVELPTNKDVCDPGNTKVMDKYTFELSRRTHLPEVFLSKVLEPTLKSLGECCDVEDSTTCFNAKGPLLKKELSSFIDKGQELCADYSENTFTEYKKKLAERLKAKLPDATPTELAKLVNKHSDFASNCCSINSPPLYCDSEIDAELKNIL
Experimental: FIG. 8A and FIG. 8B show immobilization of DBP on a Biacore surface plasmon resonance sensor chip CM5. Purified DBP in HBSS (5 μM) was coupled to the sensor chip. Coupling was detected using 5 μg/ml affinity-purified anti-DBP (FIG. 8A). Different concentrations of U937-C5aR cells in HBSS were injected into the flow cell and allowed to interact with the immobilized DBP (FIG. 8B). Data is expressed as response units of the molecular interaction on the sensor chip.
FIGS. 9A to 9C show the effect of pretreating U937-C5aR cells with purified DBP or DBP peptides on the binding to DBP immobilized on a Biacore sensor chip. FIG. 9A: 10^6 cells/ml in HBSS were not treated (control), pretreated with 50 nM DBP, 0.5 μM DBP peptide 1 (p1) or DBP peptide 2 (p2). FIG. 9B: DBP peptide 1 immobilized to the Biacore sensor chip. FIG. 9C: DBP peptide 2 immobilized to the Biacore sensor chip. Data is expressed as response units of the molecular interaction on the sensor chip.
U937-C5aR cells (10^6 cells/ml in HBSS) were pretreated with a 25 μg/ml control IgG, 50 nM purified DBP or 25 μg/ml affinity-purified anti-CD44 and then allowed to interact with DBP immobilized on a Biacore sensor chip. Data is expressed as response units of the molecular interaction on the sensor chip.
According to the present invention, the interaction of an immobilized ligand, e.g., immobilized DBP, binding to cells can be measure by any established technology available in the art, e.g., by surface plasmon resonance (SPR) or Biacore technology. For example, in the present invention, the binding of U937-C5aR cells to immobilized DBP were examined by Biacore technology, the result of which is used to further determine if the DBP peptides generated in the present invention can alter the interaction U937-C5aR cells and DBP. […] To investigate further the effect of DBP peptides on cell binding, peptide 1 (FIG. 9B) and peptide 2 (FIG. 9C) were immobilized to Biacore sensor chips. […] Finally, the present invention also identifies that CD44 on the cell surface binds DBP and can, in part, mediate the C5a chemotactic cofactor effect of DBP (McVoy and Kew, J. Immunol. 175:4754, 2005). Therefore, using Biacore technology the present invention addresses the effect of blocking CD44 on U937-C5aR binding to immobilized DBP (FIG. 10). In the present invention, U937-C5aR cells were pretreated with either an irrelevant goat IgG (negative control), purified soluble DBP (positive control) or affinity-purified goat anti-CD44. […] These Biacore experiments have provided a powerful quantitative tool to investigate the cell binding region on DBP and examine the effects on DBP peptides on this interaction.

[2] = tested on: differentiated HL-60 cells; assay: Ligand-induced calcium mobilization (Fluo-3 AM) in differentiated HL-60 cells; format: cell-based, Human; conditions: differentiated HL-60 cells incubated 30 min with 50 nM of indicated DBP, then C5a
Experimental: Cells and cell culture: Human promyelocytic cell line HL-60 was obtained from ATCC (Rockville, Md.) and cultured in RPMI 1640 medium supplemented with 10% FBS. Differentiation of HL-60 cells was initiated with 250 μM Bt2cAMP for 48 hours.
Ligand-induced calcium mobilization. Calcium mobilization studies were performed using the Fluo-3 AM probe as described previously (see Merritt, J. E. et al., Biochem. J. 269, 513-519 (1990)). Differentiated HL-60 cells (1×10^7 cells/ml) were resuspended in HBSS-1% BSA containing 2 μM Fluo-3 AM (Molecular Probes, Eugene, Oreg.) and incubated at 37° C. for 40 minutes. Cells incubated without the dye were used as a control to measure autofluorescence (Fmin). Following the dye uptake, cells were washed twice then suspended at 5×10^6 cells/ml in HBSS containing 1% BSA. Half of the cell suspension was treated with 50 nM DBP for 30 min at room temperature, the other half served as the untreated control. For each measurement, 400 μl of cell suspension (with or without DBP) was added to a cuvette and stimulated with various concentrations of purified C5a at room temperature (22-24° C.). Fluorescence was then measured immediately using a Perkin-Elmer LS-5 fluorometer at 505 nm excitation, 526 nm emission for Fluo-3 AM. Fmax was measured by treating labeled cells with 60 μM digitonin. Intracellular free calcium concentrations were calculated using the following formula: (Ca^2+)=Kd (F−Fmin)/(Fmax−F), where Kd=325 nM for Fluo-3 according to manufacturer (Molecular Probes).

B1: DBP: Purified human DBP obtained from Biodesign International (protein)
chain: LERGRDYEKNKVCKEFSHLGKEDFTSLSLVLYSRKFPSGTFEQVSQLVKEVVSLTEACCAEGADPDCYDTRTSALSAKSCESNSPFPVHPGTAECCTKEGLERKLCMAALKHQPQEFPTYVEPTNDEICEAFRKDPKEYANQFMWEYSTNYGQAPLSLLVSYTKSYLSMVGSCCTSASPTVCFLKERLQLKHLSLLTTLSNRVCSQYAAYGEKKSRLSNLIKLAQKVPTADLEDVLPLAEDITNILSKCCESASEDCMAKELPEHTVKLCDNLSTKNSKFEDCCQEKTAMDVFVCTYFMPAAQLPELPDVELPTNKDVCDPGNTKVMDKYTFELSRRTHLPEVFLSKVLEPTLKSLGECCDVEDSTTCFNAKGPLLKKELSSFIDKGQELCADYSENTFTEYKKKLAERLKAKLPDATPTELAKLVNKHSDFASNCCSINSPPLYCDSEIDAELKNIL
- inhibition of U937-C5aR cell binding to the DBP chip ([1]; FIG. 9A, 10^6 cells/ml pretreated with 50 nM DBP or 0.5 μM DBP peptide): almost completely blocked
- inhibition of U937-C5aR binding to immobilized DBP ([1]; FIG. 10, cells pretreated with 50 nM purified DBP or 25 μg/ml anti-CD44): completely blocks binding
- enhancement of intracellular Ca2+ flux in response to C5a [2]: significantly enhanced intracellular calcium influx
- enhancement of intracellular Ca2+ flux in response to C5a ([2]; listed as natural DBP): significantly enhanced
